Results: a protein production outcome set (Wang et al. 2014)

Experiment: label from the status in PepcDB records

Sequence | protein production
MLELNAKTTALVVIDLQEGILPFAGGPHTADEVVNRAGKLAAKFRASGQPVFLVRVGWSADYAEALKQPVDAPSPAKVLPENWWQHPAALGATDSDIEIIKRQWGAFYGTDLELQLRRRGIDTIVLCGISTNIGVESTARNAWELGFNLVIAEDACSAASAEQHNNSINHIYPRIARVRSVEEILNAL | not failed
MLEMIYFAVVAIVGFFFYRKMNGKPMFGFKKKGKSQGGVEKRTAEKNGKKNKKNTPATEEIDEDNVDFFSAFVEDIKEVENHMIRYHDDTFVLIAEAHPVNYYLLSNAEQEAIDIKIESWLTTLEFNTKVYIQSKFVDLTDPVRKMTETMKGAKDLTPETVLYGQEVIDNLEYWQRSQPRYEQKRYLIYPYKVDISTITADTEEELEEKIVDKAFNELYRRYNASRNLLSKAKISVEMLTKDKLIELLYVAFNRRKAVKARFQDLIENENFSLYSTGETNERKLELMKKVLAEEKAEKSNNGVA | failed
MLEQGTISIHTENIFPIIKKSLYSDHQIFLRELVSNAVDAIQKLKMVSRAGEYAGVVDEPEIQLAIDKDKKTLSITDNGIGMTAEEVKKYINQVAFSSAEEFIHKYQGKSDQPIIGHFGLGFYSSFMVAQKVEIDTLSYQEGAQAVHWSCDGSPEFTLEESSRTTIGTTITLTLLPDEEEYLESARVKNLVKTYCDFMPVPIKLDGEVLNRQKAPWRESPSNLTKEDYLEFYRYLYPFQEEPLLWVHLNTDYPFIINGILYFPKMRPDVDVTKGQIKLFCNQVFVSDNCEEIIPQFLVPMRGVIDSTDIPLNVSRSALQGDRTVRKIGDYIAKKVGDRLKELYRDDREQYISAWKDLSTFVKFGVLNDEKFKKQVEDIIIFRSTVKWEQPAETPAVEVQSQEGDVWQDITPSPDSPTPGLPYTTLKEYLERNKERHENRVFYSTDEATQATYIELHKNQGLEVLFLDSFIDTHFINFLEQEYQDVKFTRVDSDLDNTLLEQDKAGEIVDPTTNKTKSEIIKELFEKSLNKPKVNIRTEALKSDDPQGTPPAIVLLPEFLRRMREMTAMMQQQNADFPEDHILLVNTAHPLIQNLVNLNQGAIIQGDGESTTNPLVNLICQHVYDLALMSQKGFDAEGMKSFVERSNDVLTKLTQQAKN | failed
MLEYKKILVPVEGSPKGELALKKAIFVAKRNHAHLDILTVIQSSRFLDVYGHMGSNMDYVEVSLRRAKEYVEDLKDQIKRKYDFEDVEVYVEAGDPKAIIATEMPEKLGTDLIMMGATGLNAFQRAMIGSVADYVTRVALMDVLLVRTELDNLPYSK | failed
MLFDTSPKDNRKDFFDREKEIEKLKGLRAPITLVLGLRRTGKSSIIKIGINELNLPYIYLDLRKFEERNYISYKDFLLELQKEINKLVKRLPSLLKALKNIQGIVIMGNEIKFNWNRKDRLSFANLLESFEQASKDNVIIVLDEAQELVKLRGVNLLPALAYAYDNLKRIKFIMSGSEMGLLYDYLRVEDPESPLFGRAFSTVELKPFSREEAIEFLRRGFQEADIDFKDYEVVYEKIGGIPGWLTYFGFIYLDNKNLDFAINQTLEYAKKLILKEFENFLHGREIARKRYLNIMRTLSKCGKWSDVKRALELEEGIEISDSEIYNYLTQLTKHSWIIKEGEKYCPSEPLISLAFS | not failed
MLGGIEAGGTKFVCAVGREDGTIIDRIEFPTKMPDETIEKVIQYFSQFSLQAIGIGSFGPVDNDKTSQTYGTITATPKAGWRHYPFLQTVKNEMKIPVGFSTDVNAAALGEFLFGEAKGLDSCLYITIGTGIGAGAIVEGRLLQGLSHPEMGHIYIRRHPDDVYQGKCPYHGDCFEGLASGPAIEARWGKKAADLSDIAQVWELEGYYIAQALAQYILILAPKKIILGGGVMQQKQVFSYIYQYVPKIMNSYLDFSELSDDISDYIVPPRLGSNAGIIGTLVLAHQALQAEAASGEVRS | not failed
MLGLGVDRLQADINRLLASLFHQGVLDEQFLQLQQLQDETSPNFVYDVINIYFDESEKLLRNLRLLLMDREFSDYKKIGLHLNQLVGSSSSIGARRVRNVCVAFRSASELSNRPGCLRGLEVVEHEYHYLKNMMHELFQWLQLEQQRILAAGVRYPM | failed
MLGNKVVSSPLVAALVALAVRLLAHNFSHHIHLPYHFGITTSKTGSEIWKEAVFWKQQFGVVPAFLTTVGPWFMEYIPPASSDAYVIFLCLCDALTVYIVSRWPSAKPQLTYALFVLNPIMALLPMLESLAPLEHVLLAVILECCRKRRIHPWLIFAARLLAPLLGFHFIAIIVALWYPVGTPCPKIALVGVALCTACIGGCGMLYLRWWGEHVERTSLYSPPDNGVMWYVRLLIMAAFHRSMEVGQIELPAVLTLIFSTGVPCEKEAAAETMKDGGAIPGDRRLLVTLLAICFSKLFCEHVILADYMITVFFLYSLLEVKGRGGFKSMLDRVRGLNIFLPICTLLLGVPLQYAFYTGWVMWDMANPNWVFFPQVAFVTGGGLFLLAFVNSLVDAMKEECVAGITKEKQA | failed
